According to PMC11996680:

Target: T1, HOOK3-SNAPf labeled with Alexa-647 (human) (UniProt Q86VS8)
T1 sequence (chain, Alexa-647 on the SNAP tag): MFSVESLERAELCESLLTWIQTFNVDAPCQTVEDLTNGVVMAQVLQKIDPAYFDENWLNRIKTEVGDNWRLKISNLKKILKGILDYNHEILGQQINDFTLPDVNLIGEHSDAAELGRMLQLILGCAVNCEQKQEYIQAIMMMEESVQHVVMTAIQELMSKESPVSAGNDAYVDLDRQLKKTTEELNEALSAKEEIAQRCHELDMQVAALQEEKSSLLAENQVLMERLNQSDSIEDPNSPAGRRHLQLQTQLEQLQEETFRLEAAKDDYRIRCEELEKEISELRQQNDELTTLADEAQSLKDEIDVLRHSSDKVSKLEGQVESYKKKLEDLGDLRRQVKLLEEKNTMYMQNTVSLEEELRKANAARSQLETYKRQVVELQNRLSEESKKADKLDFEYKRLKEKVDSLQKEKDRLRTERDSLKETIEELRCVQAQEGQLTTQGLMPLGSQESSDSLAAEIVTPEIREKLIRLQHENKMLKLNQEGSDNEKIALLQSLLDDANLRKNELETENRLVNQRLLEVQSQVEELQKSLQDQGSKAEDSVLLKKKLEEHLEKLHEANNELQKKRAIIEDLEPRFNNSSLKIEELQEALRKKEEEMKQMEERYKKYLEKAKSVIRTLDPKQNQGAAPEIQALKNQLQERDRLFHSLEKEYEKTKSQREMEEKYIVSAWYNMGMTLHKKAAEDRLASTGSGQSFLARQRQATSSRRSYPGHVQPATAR

TMR–dynein landing rate on microtubules (TIRF), dynein–dynactin–HOOK3 with against without GST–KIF1C stalk–GFP: 2.6 fold
B1: GST–KIF1C^642–922–GFP (domain or fragment)
chain: EMEKRLQDLENQYRKEKEEADLLLEQQRLYADSDSGDDSDKRSCEESWRLISSLREQLPPTTVQTIVKRCGLPSSGKRRAPRRVYQIPQRRRLQGKDPRWATMADLKMQAVKEICYEVALADFRHGRAEIEALAALKMRELCRTYGKPDGPGDAWRAVARDVWDTVGEEEGGGAGSGGGSEEGARGAEVEDLRAHIDKLTGILQEVKLQNSSKDRELQALRDRMLRMERVIPLAQDHEDENEEGGEVPWAPPEGSEAAEEAAPSDRMPSARPPSPPLSSWE
